Experimental data as given in the Human Domainome abundance scans (Beltran et al. 2025).

B1: Cullin-9, residues 2234 to 2275; numbered along this chain, Q8IWT3 (parent)
chain: KRCPSCQAPIEKNEGCLHMTCAKCNHGFCWRCLKSWKPNHKD

Variants of: B1
Experiment: abundance fitness (aPCA) (normalised: wild type 0, dead -1); higher = more abundant; growth selection in yeast, the domain comes from the species named
Conditions: Homo sapiens

Abundance fitness: each site, then its substitutions
D42: A -0.117, E -0.09, P -0.158, M -0.77, L -0.444, S -0.387, T -0.073, G -0.21, F -0.729, K -0.487, V -0.359, W -0.692, R -0.951, C 0.214
R31: W -0.025, I -0.072, V 0.128, E 0.162, N 0.17, P -0.17, F -0.258, K 0.371, Q 0.208, G 0.128, S -0.065, Y 0.212, D 0.119, T 0.03, C 0.055, H 0.078, A -0.026
H26: C -0.628, F 0.146, M -0.109, N -0.287, E -0.091, Q -0.17, S 0.055, P -0.154, T -0.226, R -0.213, K -0.314, I -0.367, Y -0.1, W -0.541, G -0.02, L -0.419, A -0.022, D 0.063, V -0.266
A22: R -0.242, W -0.096, V -0.306, S -0.202, Y 0.082
F28: M -0.39, P 0.048, E -0.074, Q 0.084, Y -0.049, L -0.233, N 0.135, T -0.219, V -0.236, D 0.101, H 0.322, C -0.189, W -0.255, K -0.288, A -0.173
W36: S 0.118, P 0.067, T 0.147, K 0.13, R -0.25, V 0.304, D 0.255, N -0.355, F -0.194, G -0.026, L 0.205, H -0.015, C -0.391, Y -0.17, A 0.029, Q 0.082
K34: A -0.431, D -0.376, G -0.194, W -0.765, S -0.18, L -0.639, I -0.539, N -0.579, E 0.045, P -0.363, C -0.341, Q -0.128, H -0.252, M -0.374, F -0.378, T -0.313
H40: E 0.182, C -0.24, W -0.427, Y -0.451, K -0.319, M 0.13, T -0.359, A 0.05, S 0.066, R -0.283, G -0.102, F -0.089, D 0.111, P -0.091, Q -0.123, V 0.006
C32: M -0.545, V -0.983, F -0.744, A -0.632, T -0.485, P -0.959, E -0.117, Q -0.726, R -0.894, H -1.17, N -0.472, L -0.939, D -0.199, K -0.677, G -0.668, W -0.744, S -0.747
S35: N -0.092, T 0.044, W -0.23, Q 0.068, M 0.037, E 0.17, C -0.195, R -0.356, F 0.187, D 0.003, H -0.373, A 0.049, K -0.155, I -0.438, L 0.078, P 0.446, V -0.132, Y -0.463
N39: M -0.14, R -0.071, G 0.203, F 0.269, T 0.16, L 0.001, H -0.377, S 0.001, K 0.045, C -0.093, W -0.176, Q -0.152, A 0.017, Y -0.384
